Where a chain is given by its changes, count along the chain named.
B1: M4-3(A7)/ML2(E10) IgG (antibody, V domains shown)
VH: QVQLQESGPGLVKPSQTLSLTCTVSGGSITDGYYWNWIRQHPGKGLEWIGYITFDGRNNYNPSLKSRVTISRDTSKNQFSLKLSSVTAADTAVYYCADFDYWGQGTLVTVSS
VL: DIQMTQSPSSLSASVGDRVTITCRASYGIRGYLNWYQQKPGKAPKLLIYYTSSLHSGVPSRFSGSGSGTDFTLTISSLQPEDFATYHCQQYSKLPWTFGQGTKVEIK
notes: Human IgG1
B2: M4-3(C1)/ML2 IgG (antibody, V domains shown)
VH: B1 VH with D31S, R57S
VL: DIQMTQSPSSLSASVGDRVTITCRASQGIRNYLNWYQQKPGKAPKLLIYYTSSLHSGVPSRFSGSGSGTDFTLTISSLQPEDFATYYCQQYSKLPWTFGQGTKVEIKR
notes: Human IgG1; copies: 2 + 2
B3: M4-3/ML2(G3) IgG (antibody, V domains shown)
VH: B1 VH with D31S, F54Y, R57S
VL: B1 VL with Y27Q, G31N, F71Y, H87Y, K93A
notes: Human IgG1
B4: M4-3/ML2(E10/G3) IgG (antibody, V domains shown)
VH: B1 VH with D31S, F54Y, R57S
VL: B1 VL with K93A
notes: Human IgG1
B5: M4-3/ML2(E10) IgG (antibody, V domains shown)
VH: B1 VH with D31S, F54Y, R57S
VL: B1 VL
notes: Human IgG1
B6: M4-3(B7)/ML2 IgG (antibody, V domains shown)
VH: B1 VH with D31S, R57I
VL: B1 VL with Y27Q, G31N, H87Y
notes: Human IgG1
B7: M4-3(A7)/ML2 IgG (antibody, V domains shown)
VH: B1 VH
VL: B1 VL with Y27Q, G31N, H87Y
notes: Human IgG1
B8: M4-(A7)/ML2(C5) IgG (antibody, V domains shown)
VH: B1 VH
VL: B1 VL with Y27R, G31E, S52G, H87Y, K93E
notes: Human IgG1; also called M4-3(A7)/ML2(C5)
B9: M4-3/ML2(C5/G3) IgG (antibody, V domains shown)
VH: B1 VH with D31S, F54Y, R57S
VL: B1 VL with Y27R, G31E, S52G, H87Y, K93A
notes: Human IgG1
B10: M4-3(B8)/ML2 IgG (antibody, V domains shown)
VH: B1 VH with D31S
VL: B1 VL with Y27Q, G31N, H87Y
notes: Human IgG1
B11: M4-3/ML2(C5) IgG (antibody, V domains shown)
VH: B1 VH with D31S, F54Y, R57S
VL: B1 VL with Y27R, G31E, S52G, H87Y, K93E
notes: Human IgG1
B12: M4-3(D6)/ML2 IgG (antibody, V domains shown)
VH: B1 VH with D31S, R57K
VL: B1 VL with Y27Q, G31N, H87Y
notes: Human IgG1
B13: M4-3(A7)/ML2(G3) IgG (antibody, V domains shown)
VH: B1 VH
VL: B1 VL with Y27Q, G31N, F71Y, H87Y, K93A
notes: Human IgG1
B14: 1 + 1 IgG Crossfab; VL/VH exchange (LC007/V9) (anti-MCSP/anti-huCD3) (bispecific antibody)
chain 1: DIVLTQSPSSLSASLGDRVTISCSASQGIRNYLNWYQQRPDGTVKLLIYYTSSLHSGVPSRFSGSGSGTDYSLTISNLEPEDIATYYCQQYSKLPWTFGGGTKLEIKRTVAAPSVFIFPPSDEQLKSGTASVVCLLNNFYPREAKVQWKVDNALQSGNSQESVTEQDSKDSTYSLSSTLTLSKADYEKHKVYACEVTHQGLSSPVTKSFNRGEC
chain 2: DIQMTQSPSSLSASVGDRVTITCRASQDIRNYLNWYQQKPGKAPKLLIYYTSRLESGVPSRFSGSGSGTDYTLTISSLQPEDFATYYCQQGNTLPWTFGQGTKVEIKSSASTKGPSVFPLAPSSKSTSGGTAALGCLVKDYFPEPVTVSWNSGALTSGVHTFPAVLQSSGLYSLSSVVTVPSSSLGTQTYICNVNHKPSNTKVDKKVEPKSCGGGGSGGGGSEVQLQESGPGLVKPSQSLSLTCSVTGYSITSGYYWNWIRQFPGNKLEWMGYITYDGSNNYNPSLKNRISITRDTSKNQFFLKLNSVTTEDTATYYCADFDYWGQGTTLTVSSASTKGPSVFPLAPSSKSTSGGTAALGCLVKDYFPEPVTVSWNSGALTSGVHTFPAVLQSSGLYSLSSVVTVPSSSLGTQTYICNVNHKPSNTKVDKKVEPKSCDKTHTCPPCPAPEAAGGPSVFLFPPKPKDTLMISRTPEVTCVVVDVSHEDPEVKFNWYVDGVEVHNAKTKPREEQYNSTYRVVSVLTVLHQDWLNGKEYKCKVSNKALGAPIEKTISKAKGQPREPQVCTLPPSRDELTKNQVSLSCAVKGFYPSDIAVEWESNGQPENNYKTTPPVLDSDGSFFLVSKLTVDKSRWQQGNVFSCSVMHEALHNHYTQKSLSLSPGK
chain 3: EVQLVESGGGLVQPGGSLRLSCAASGYSFTGYTMNWVRQAPGKGLEWVALINPYKGVSTYNQKFKDRFTISVDKSKNTAYLQMNSLRAEDTAVYYCARSGYYGDSDWYFDVWGQGTLVTVSSASVAAPSVFIFPPSDEQLKSGTASVVCLLNNFYPREAKVQWKVDNALQSGNSQESVTEQDSKDSTYSLSSTLTLSKADYEKHKVYACEVTHQGLSSPVTKSFNRGEC
chain 4: not shown
B15: 1 + 1 CrossMab; CL/CH1 exchange (LC007/V9) (anti-MCSP/anti-huCD3) (bispecific antibody)
chain 1: B14 chain 1
chain 2: EVQLQESGPGLVKPSQSLSLTCSVTGYSITSGYYWNWIRQFPGNKLEWMGYITYDGSNNYNPSLKNRISITRDTSKNQFFLKLNSVTTEDTATYYCADFDYWGQGTTLTVSSASTKGPSVFPLAPSSKSTSGGTAALGCLVKDYFPEPVTVSWNSGALTSGVHTFPAVLQSSGLYSLSSVVTVPSSSLGTQTYICNVNHKPSNTKVDKKVEPKSCDKTHTCPPCPAPEAAGGPSVFLFPPKPKDTLMISRTPEVTCVVVDVSHEDPEVKFNWYVDGVEVHNAKTKPREEQYNSTYRVVSVLTVLHQDWLNGKEYKCKVSNKALGAPIEKTISKAKGQPREPQVCTLPPSRDELTKNQVSLSCAVKGFYPSDIAVEWESNGQPENNYKTTPPVLDSDGSFFLVSKLTVDKSRWQQGNVFSCSVMHEALHNHYTQKSLSLSPGK
chain 3: DIQMTQSPSSLSASVGDRVTITCRASQDIRNYLNWYQQKPGKAPKLLIYYTSRLESGVPSRFSGSGSGTDYTLTISSLQPEDFATYYCQQGNTLPWTFGQGTKVEIKSSASTKGPSVFPLAPSSKSTSGGTAALGCLVKDYFPEPVTVSWNSGALTSGVHTFPAVLQSSGLYSLSSVVTVPSSSLGTQTYICNVNHKPSNTKVDKKVEPKSC
chain 4: not shown

Target: T1, cynomolgus MCSP D3 (cynomolgus, UniProt Q6UVK1 1582-2224 (human entry), limits assumed)
T1 construct: also called Cyno MCSP; cynomolgus homologue
T1 chain: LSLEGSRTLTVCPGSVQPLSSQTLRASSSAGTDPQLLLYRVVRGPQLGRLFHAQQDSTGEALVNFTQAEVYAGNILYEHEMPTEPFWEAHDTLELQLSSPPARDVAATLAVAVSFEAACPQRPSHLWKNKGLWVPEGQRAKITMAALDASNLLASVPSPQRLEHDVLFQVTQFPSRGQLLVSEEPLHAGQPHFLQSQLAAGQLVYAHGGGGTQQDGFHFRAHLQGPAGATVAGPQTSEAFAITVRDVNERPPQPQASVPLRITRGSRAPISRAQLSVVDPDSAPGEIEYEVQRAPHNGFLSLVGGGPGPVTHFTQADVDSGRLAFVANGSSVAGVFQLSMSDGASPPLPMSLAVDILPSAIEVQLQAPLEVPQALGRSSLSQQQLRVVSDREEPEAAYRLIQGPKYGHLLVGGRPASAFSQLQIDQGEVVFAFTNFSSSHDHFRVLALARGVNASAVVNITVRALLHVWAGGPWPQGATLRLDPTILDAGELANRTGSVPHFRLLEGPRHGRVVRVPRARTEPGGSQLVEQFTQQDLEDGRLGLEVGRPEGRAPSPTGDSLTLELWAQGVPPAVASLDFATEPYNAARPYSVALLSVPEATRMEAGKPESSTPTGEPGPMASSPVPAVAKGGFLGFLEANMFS
Experiment: ratio of ProteOn IgG KD, parent M4-3/ML2 against variant

| Binder | Fold increase over parent [fold] |
| --- | --- |
| B1 | 2.9 |
| B2 | 2.5 |
| B3 | 3.3 |
| B4 | 2.2 |
| B5 | 1 |
| B6 | 2.9 |
| B7 | 2 |
| B8 | 10 |
| B9 | 2 |
| B10 | 2 |
| B11 | 2 |
| B12 | 2 |
| B13 | 10 |

These binders were tested against T2, hu-MCSP(D3 domain)-avi-his (human, UniProt Q6UVK1 1582-2224) in the same assay as above.
T2 construct: Recombinant D3 domain with avi and his tags; also called human MCSP(D3 domain)-avi-his; Human MCSP D3
T2 sequence: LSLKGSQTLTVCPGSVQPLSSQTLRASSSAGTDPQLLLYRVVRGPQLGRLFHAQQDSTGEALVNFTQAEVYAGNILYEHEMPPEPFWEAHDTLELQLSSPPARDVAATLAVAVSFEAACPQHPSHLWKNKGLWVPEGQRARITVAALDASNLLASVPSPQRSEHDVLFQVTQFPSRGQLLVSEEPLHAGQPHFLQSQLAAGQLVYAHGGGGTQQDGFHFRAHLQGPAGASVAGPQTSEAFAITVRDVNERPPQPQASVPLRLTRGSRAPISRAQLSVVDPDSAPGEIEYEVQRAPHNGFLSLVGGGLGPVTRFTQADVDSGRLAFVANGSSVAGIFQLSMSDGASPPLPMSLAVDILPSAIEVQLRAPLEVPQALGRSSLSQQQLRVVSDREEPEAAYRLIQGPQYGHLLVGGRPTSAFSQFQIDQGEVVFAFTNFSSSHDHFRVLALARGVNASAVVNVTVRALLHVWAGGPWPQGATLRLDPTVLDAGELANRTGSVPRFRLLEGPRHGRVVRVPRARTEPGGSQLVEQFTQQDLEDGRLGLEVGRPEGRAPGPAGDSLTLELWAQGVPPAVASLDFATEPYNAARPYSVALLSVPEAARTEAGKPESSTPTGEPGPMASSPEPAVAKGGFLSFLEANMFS

| Binder | Fold increase over parent [fold] |
| --- | --- |
| B1 | 6.7 |
| B2 | 2.2 |
| B3 | 6.7 |
| B4 | 5 |
| B5 | 2 |
| B6 | 4 |
| B7 | 2.5 |
| B8 | 28.6 |
| B9 | 2.9 |
| B10 | 2.2 |
| B11 | 5 |
| B12 | 5 |
| B13 | 28.6 |

These binders were tested against human MCSP expressed on tumor cells (Colo-38, WM266-4, A375, MV-3, HCT-116) (human, UniProt Q6UVK1 30-2322) (assay: cell-based or functional assay).
Chain of human MCSP expressed on tumor cells (Colo-38, WM266-4, A375, MV-3, HCT-116) (Q6UVK1 30-2322): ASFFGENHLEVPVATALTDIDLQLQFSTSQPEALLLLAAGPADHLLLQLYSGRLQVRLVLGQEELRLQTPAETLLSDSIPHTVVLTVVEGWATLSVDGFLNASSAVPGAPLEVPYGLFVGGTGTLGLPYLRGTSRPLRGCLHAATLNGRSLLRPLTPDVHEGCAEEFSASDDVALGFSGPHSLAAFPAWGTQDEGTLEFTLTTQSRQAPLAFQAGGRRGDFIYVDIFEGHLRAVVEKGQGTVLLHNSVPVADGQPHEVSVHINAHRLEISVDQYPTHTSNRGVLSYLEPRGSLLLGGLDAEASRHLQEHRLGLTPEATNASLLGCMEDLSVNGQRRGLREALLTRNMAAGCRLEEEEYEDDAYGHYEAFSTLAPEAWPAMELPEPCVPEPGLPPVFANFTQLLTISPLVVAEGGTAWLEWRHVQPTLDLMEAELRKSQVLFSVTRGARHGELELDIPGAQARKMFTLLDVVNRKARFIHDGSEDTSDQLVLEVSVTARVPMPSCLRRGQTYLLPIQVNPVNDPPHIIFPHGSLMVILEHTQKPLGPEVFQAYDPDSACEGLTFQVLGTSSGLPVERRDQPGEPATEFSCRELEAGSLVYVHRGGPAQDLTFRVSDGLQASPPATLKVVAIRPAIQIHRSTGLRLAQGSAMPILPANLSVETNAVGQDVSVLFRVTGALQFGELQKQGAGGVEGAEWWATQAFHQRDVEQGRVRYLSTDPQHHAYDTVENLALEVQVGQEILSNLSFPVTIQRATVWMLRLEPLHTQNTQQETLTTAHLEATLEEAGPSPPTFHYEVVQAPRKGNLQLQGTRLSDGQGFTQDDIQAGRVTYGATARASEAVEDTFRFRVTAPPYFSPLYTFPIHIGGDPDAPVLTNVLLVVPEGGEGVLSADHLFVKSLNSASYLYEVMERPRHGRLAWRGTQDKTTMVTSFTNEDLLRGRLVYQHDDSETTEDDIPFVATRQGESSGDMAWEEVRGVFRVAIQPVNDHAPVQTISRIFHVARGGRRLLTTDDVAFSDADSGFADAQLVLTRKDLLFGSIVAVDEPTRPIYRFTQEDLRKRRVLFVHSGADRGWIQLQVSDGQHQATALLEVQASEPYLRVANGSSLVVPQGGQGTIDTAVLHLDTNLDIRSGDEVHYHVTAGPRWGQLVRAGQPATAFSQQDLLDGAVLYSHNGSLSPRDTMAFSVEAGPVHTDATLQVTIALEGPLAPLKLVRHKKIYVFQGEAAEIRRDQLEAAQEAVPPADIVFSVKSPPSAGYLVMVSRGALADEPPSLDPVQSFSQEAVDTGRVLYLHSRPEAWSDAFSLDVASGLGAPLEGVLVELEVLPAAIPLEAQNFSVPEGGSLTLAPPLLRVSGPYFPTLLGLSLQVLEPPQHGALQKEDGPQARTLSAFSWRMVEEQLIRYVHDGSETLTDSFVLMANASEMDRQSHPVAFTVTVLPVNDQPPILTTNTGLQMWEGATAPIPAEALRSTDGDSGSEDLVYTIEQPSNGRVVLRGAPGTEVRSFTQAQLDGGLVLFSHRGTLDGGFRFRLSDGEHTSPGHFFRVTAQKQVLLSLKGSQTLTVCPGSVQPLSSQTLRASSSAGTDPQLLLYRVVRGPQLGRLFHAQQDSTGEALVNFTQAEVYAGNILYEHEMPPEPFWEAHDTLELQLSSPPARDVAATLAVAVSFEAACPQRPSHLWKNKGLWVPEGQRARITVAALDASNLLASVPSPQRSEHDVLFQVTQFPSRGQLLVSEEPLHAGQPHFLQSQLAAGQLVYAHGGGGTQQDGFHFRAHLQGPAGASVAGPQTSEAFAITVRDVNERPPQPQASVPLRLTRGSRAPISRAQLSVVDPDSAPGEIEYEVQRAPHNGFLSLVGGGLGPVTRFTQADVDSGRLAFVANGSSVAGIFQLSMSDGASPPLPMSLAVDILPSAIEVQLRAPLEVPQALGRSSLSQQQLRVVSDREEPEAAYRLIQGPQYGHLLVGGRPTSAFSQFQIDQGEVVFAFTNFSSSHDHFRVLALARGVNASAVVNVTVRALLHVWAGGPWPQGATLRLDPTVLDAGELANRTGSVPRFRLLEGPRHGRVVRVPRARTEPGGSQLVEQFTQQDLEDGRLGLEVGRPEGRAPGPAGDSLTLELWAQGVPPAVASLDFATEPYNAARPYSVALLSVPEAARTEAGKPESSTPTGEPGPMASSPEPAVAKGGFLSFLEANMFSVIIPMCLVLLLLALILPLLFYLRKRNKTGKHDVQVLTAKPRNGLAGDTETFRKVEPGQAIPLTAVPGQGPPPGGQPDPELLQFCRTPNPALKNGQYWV

| Binder | EC50 of T cell-mediated killing (LDH release), MV-3 cells, human PBMCs E:T 10:1, 21 h [nM] | EC50 of T cell-mediated killing (LDH release), WM266-4 cells, human PBMCs E:T 10:1, 21 h [nM] |
| --- | --- | --- |
| B14 | 0.0409 | 0.0284 |
| B15 | 0.0884 | 0.0539 |

Target: T1, cynomolgus MCSP D3
Experiment: SPR ProteOn XPR36, 25 C; IgG captured via anti-human F(ab')2, MCSP D3 as analyte

| Binder | Kd [nM] |
| --- | --- |
| B1 | 0.7 |
| B2 | 0.8 |
| B3 | 0.6 |
| B4 | 0.9 |
| B5 | 2 |
| B6 | 0.7 |
| B7 | 1 |
| B8 | 0.2 |
| B9 | 1 |
| B10 | 1 |
| B11 | 1 |
| B12 | 1 |
| B13 | 0.2 |

What follows are binders tested against T2, hu-MCSP(D3 domain)-avi-his in the same assay as above.

| Binder | Kd [nM] |
| --- | --- |
| B1 | 0.3 |
| B2 | 0.9 |
| B3 | 0.3 |
| B4 | 0.4 |
| B5 | 1 |
| B6 | 0.5 |
| B7 | 0.8 |
| B8 | 0.7 |
| B9 | 0.7 |
| B10 | 0.9 |
| B11 | 0.4 |
| B12 | 0.4 |
| B13 | 0.07 |

Source: US20140242080A1 (Hoffmann-La Roche, published 2014)
